Laboratory results taken from doi:10.64898/2025.12.30.697126 (bioRxiv, 2025).

Biological target: single-chain H2B-H2A.Z (human)
Assay: crystal structure

binding result: binds
Binder: SEDAQSQSQADEEEEDDDFGVEYLLARDEE [Peptide SRCAP_(531-560)]
